According to publication PMC11240526, “Method for B Cell Receptor Enrichment in Malignant B Cells” (Cancers, 2024):

T1: CD79a (human (endogenous in Raji), UniProt P11912 33-226)
T1 construct: CD79a (Igα), signalling subunit of the B cell receptor, human, endogenous in the Raji B lymphoblastoid cell line; the text prints P11912; also called Igα; Ig-alpha; source: endogenous, Raji cells, membrane fraction solubilised in Triton X-100 or DOC lysis buffer
T1 sequence (looked up): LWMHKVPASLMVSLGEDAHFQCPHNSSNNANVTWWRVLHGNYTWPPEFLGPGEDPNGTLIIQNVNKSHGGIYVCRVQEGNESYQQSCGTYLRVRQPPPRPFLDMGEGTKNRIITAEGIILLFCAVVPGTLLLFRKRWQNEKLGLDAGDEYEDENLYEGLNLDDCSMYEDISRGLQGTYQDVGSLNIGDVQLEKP

B1: CD79b (natural protein, human (endogenous in Raji), UniProt P40259 29-229, looked up)
chain: ARSEDRYRNPKGSACSRIWQSPRFIARKRGFTVKMHCYMNSASGNVSWLWKQEMDENPQQLKLEKGRMEESQNESLATLTIQGIRFEDNGIYFCQQKCNNTSEVYQGCGTELRVMGFSTLAQLKQRNTLKDGIIMIQTLLIILFIIVPIFLLLDKDDSKAGMEEDHTYEGLDIDQTATYEDIVTLRTGEVKWSVGEHPGQE
notes: CD79b (Igβ), signalling subunit of the B cell receptor, human, endogenous in the Raji B lymphoblastoid cell line; also called Igβ; Ig-beta; source: endogenous, Raji cells, membrane fraction solubilised in Triton X-100 or DOC lysis buffer

Legend:
[1] = target: CD79a (human (endogenous in Raji)) (UniProt P11912); experiment: co-IP; antibody to the bait (anti-CD79a, anti-CD79b or anti-IgM) with Protein G agarose beads; Raji membrane fraction solubilised in 1% Triton X-100 lysis buffer in PBS; overnight at 4 °C; bead eluate read by Western blot, band intensities normalised to protein load
CD79a = target: T1, CD79a; experiment: as above; details: partners not purified

Row | Molecule | fold enrichment in the bead eluate over input (band intensity normalised to protein load) [1] [fold] | fold enrichment in the bead eluate over input (band intensity normalised to protein load) (CD79a) [fold]
1 | membrane immunoglobulin M (mIgM) of Raji cells (complex) | 30 | –
2 | B1 | – | ~12
